Measured values reported in the supplement of paper PMC10201428.
± gives the standard deviation of the averaged measurements.

Key:
[1] = test system: VchCAST RNA-guided transposition machinery (E. coli BL21(DE3) host, lacZ target); test: relative integration efficiency (T-LR orientation) vs wild-type transposon end (log2 (normalized fold change)); transposon end mutated: left end; higher = more efficient transposition
Method in brief: (§1)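 Co-transformation of E. coli BL21(DE3) combined a pUC57 mini-transposon donor, holding barcoded pools of 1549 left-end or 1849 right-end variants, with a T7-driven plasmid encoding a CRISPR array, tniQ-cas8-cas7-cas6 and tnsA-tnsB-tnsC. After plating with 0.1 mM IPTG at 37°C for 18 h, input plasmids and genomic integration junctions were PCR-amplified and Illumina-sequenced across two biological output replicates, with four reference barcodes. Relative integration efficiency is the normalised, log-transformed output/input barcode fold change.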

[2] = test system: VchCAST RNA-guided transposition machinery (E. coli BL21(DE3) host, lacZ target); test: relative integration efficiency (T-RL orientation) vs wild-type transposon end (log2 (normalized fold change)); transposon end mutated: left end; higher = more efficient transposition
Method in brief: as §1

Q: Which “relative integration efficiency (log2)” value [1] does the source give for “AATGTTGTTGATGCAACCATAAAGTGATATTTAATAATTATTTATAATCAGCAACTTAACCACACAACCATATATTGATATCTCACAAAACAACCATAAGTTGATATTTTTGTGAATCGAGTATTTCAGCAAAACTACTGCAGTAAGAAAGT” here?
A: -2.81 ± 1.1

Q: And the “relative integration efficiency (log2)” value [2]?
A: -4.27 ± 1.1

Q: What does the source list for “AATGTTGTTGATGCAACCATAAAGTGATATTTAATAATTATTTATAATCAGCAACTTAACCACACCCACCAACGCGCGGTCGCGAGACACCCCACCAACGCCTGGTCGCGGGGGTGTCCGATCTGATTTCAGCAAAACTACTGCAGTAAGAA”?
A: relative integration efficiency (log2) [1]: -3.59 ± 0.93; relative integration efficiency (log2) [2]: -6.25 ± 1.4

Q: Which “relative integration efficiency (log2)” value [1] does the source give for “AATGTTGTTGATGCAACCATAAAGTGATATTTAATAATTATTTATAATCAGCAACTTACAACCATATATTGATATCTCACAAAACAACCATAAGTTGATATTTTACCACAAAATGTGAATCGAGTATTTCAGCAAAACTACTGCAGTAAGAA” here?
A: -1.12 ± 1.1

Q: And the “relative integration efficiency (log2)” value [2]?
A: -1 ± 0.61

Q: What does the source list for “AATGTTGTTGATGCAACCATAAAGTGATATTTAATAATTATTTATAATCAGCAACTTACAACCATATATTGATATCTCACAAAACAACCATAAGTTGATATTTTTGTGAATCGAGTATTTCAGCAAAACTACTGCAGTAAGAAAGTTACTTC”?
A: relative integration efficiency (log2) [1]: -0.998 ± 0.78; relative integration efficiency (log2) [2]: -0.809 ± 0.49

Q: Which “relative integration efficiency (log2)” value [1] does the source give for “AATGTTGTTGATGCAACCATAAAGTGATATTTAATAATTATTTATAATCAGCAACTTACAACCATATATTGATATCTCACCACAAAAACAAAACAACCATAAGTTGATATTTTTGTGAATCGAGTATTTCAGCAAAACTACTGCAGTAAGAA” here?
A: 0.226 ± 1.1

Q: What about the “relative integration efficiency (log2)” value [2] of the same sequence?
A: -0.417 ± 0.35

Q: What does the source list for “AATGTTGTTGATGCAACCATAAAGTGATATTTAATAATTATTTATAATCAGCAACTTCAACCATATATTGATATCTCAACCACAAAAACAAAACAACCATAAGTTGATATTTTTGTGAATCGAGTATTTCAGCAAAACTACTGCAGTAAGAA”?
A: relative integration efficiency (log2) [1]: -2.92 ± 1.7; relative integration efficiency (log2) [2]: -2.25 ± 0.7

Q: What does the source list for “AATGTTGTTGATGCAACCATAAAGTGATATTTAATAATTATTTATAATCAGCAACTTCAACCATATATTGATATCTCACAAAACAACCATAAGTTGATATTTTAACCACAAAATGTGAATCGAGTATTTCAGCAAAACTACTGCAGTAAGAA”?
A: relative integration efficiency (log2) [1]: -1.03 ± 0.79; relative integration efficiency (log2) [2]: -0.834 ± 0.54

Q: With “AATGTTGTTGATGCAACCATAAAGTGATATTTAATAATTATTTATAATCAGCAACTTCAACCATATATTGATATCTCACAAAACAACCATAAGTTGATATTTTTGTGAATCGAGTATTTCAGCAAAACTACTGCAGTAAGAAAGTTACTTCG” as the sequence, how does the “relative integration efficiency (log2)” value [1] read?
A: -0.903 ± 0.24

Q: And the “relative integration efficiency (log2)” value [2]?
A: -1.06 ± 0.45

Q: Which “relative integration efficiency (log2)” value [1] does the source give for “AATGTTGTTGATGCAACCATAAAGTGATATTTAATAATTATTTATAATCAGCACAACCATATATTGATATCTCACTTAACCACAAAAACAAAACAACCATAAGTTGATATTTTTGTGAATCGAGTATTTCAGCAAAACTACTGCAGTAAGAA” here?
A: < -10

Q: And the “relative integration efficiency (log2)” value [2]?
A: -6.85 ± 0.48

Q: What does the source list for “AATGTTGTTGATGCAACCATAAAGTGATATTTAATAATTATTTATAATCAGCACAGGCCAACACCCCACCAACGCGCGGTCGCGAGACACCCCACCAACGCCTGGTCGCGGGGGTGTCCGATCTGATTTCAGCAAAACTACTGCAGTAAGAA”?
A: relative integration efficiency (log2) [1]: -3.578 ± 0.033; relative integration efficiency (log2) [2]: -7.2 ± 1.5

Q: For “AATGTTGTTGATGCAACCATAAAGTGATATTTAATAATTATTTATAATCAGCCAACCATATATTGATATCTCACAAAACAACCATAAGTTGATATTTTTGTGAATCGAGTATTTCAGCAAAACTACTGCAGTAAGAAAGTTACTTCGTGGTA”, which “relative integration efficiency (log2)” value [1] is on record?
A: -4.33 ± 0.31

Q: And the “relative integration efficiency (log2)” value [2]?
A: -7.71 ± 0.64

Q: Which results are given for “AATGTTGTTGATGCAACCATAAAGTGATATTTAATAATTATTTATAATCAGCCCAGGCCAACACCCCACCAACGCGCGGTCGCGAGACACCCCACCAACGCCTGGTCGCGGGGGTGTCCGATCTGATTTCAGCAAAACTACTGCAGTAAGAA”?
A: relative integration efficiency (log2) [1]: -4.09 ± 1.1; relative integration efficiency (log2) [2]: -6.41 ± 1.4

Q: How did the “relative integration efficiency (log2)” value [1] turn out when “AATGTTGTTGATGCAACCATAAAGTGATATTTAATAATTATTTATAATCCTACCAGGCCAACACCCCACCAACGCGCGGTCGCGAGACACCCCACCAACGCCTGGTCGCGGGGGTGTCCGATCTGATTTCAGCAAAACTACTGCAGTAAGAA” was run?
A: -5.08 ± 3.7

Q: What about the “relative integration efficiency (log2)” value [2] of the same sequence?
A: -6.45 ± 1.8
